Columns and labels:
[1] = target: Sla2 IDR-CC-mScarlet (IDR, coiled-coil and REND regions) (S. cerevisiae) (UniProt P33338)
[2] = target: Sla2 IDR-CC-mScarlet (IDR, coiled-coil and REND regions) (S. cerevisiae) (UniProt P33338); remark: listed apart in the source

UniProt P33338, sequence (P33338 261-746): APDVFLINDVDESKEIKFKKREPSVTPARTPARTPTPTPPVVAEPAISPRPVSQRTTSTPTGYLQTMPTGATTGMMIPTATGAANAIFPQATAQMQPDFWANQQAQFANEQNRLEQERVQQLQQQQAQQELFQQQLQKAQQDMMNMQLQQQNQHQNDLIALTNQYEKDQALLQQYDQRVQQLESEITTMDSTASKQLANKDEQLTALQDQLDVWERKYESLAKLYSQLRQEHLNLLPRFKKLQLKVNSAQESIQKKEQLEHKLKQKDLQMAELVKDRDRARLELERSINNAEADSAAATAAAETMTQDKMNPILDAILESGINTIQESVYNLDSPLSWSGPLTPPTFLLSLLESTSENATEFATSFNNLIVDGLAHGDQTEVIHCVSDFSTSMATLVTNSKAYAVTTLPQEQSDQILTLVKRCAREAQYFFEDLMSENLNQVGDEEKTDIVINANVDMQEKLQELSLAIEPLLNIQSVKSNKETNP

Q: How did the ID/IS of Clathrin (green channel) with Sla2 IDR-CC-mScarlet droplets, 2.5% (w/v) PEG 8000 [1] turn out when “"Clathrin" construct: full-length CLC and CHC distal leg (residues 1172-1572) heterodimer conjugated to mNeonGreen (from UniProt P17891 1-233; P22137 1172-1572) (complex)” was run?
A: 3.6

Q: And the ID/IS of Sla2 IDR-CC-mScarlet (magenta channel) in the presence of Clathrin, 2.5% (w/v) PEG 8000 [1]?
A: 6.9

B1: Ede1 IDR-CC (residues 366-900) tagged with mEGFP (domain or fragment)
chain: GLYPPNPLPQQQSAPQIAIPSRASKPSLQDMPHQVSAPAVNTQPTVPQVLPQNSNNGSLNDLLALNPSFSSPSPTKAQTVVQNNTNNSFSYDNNNGQATLQQQQPQQPPPLTHSSSGLKKFTPTSNFGQSIIKEEPEEQEQLRESSDTFSAQPPPVPKHASSPVKRTASTTLPQVPNFSVFSMPAGAATSAATGAAVGAAVGAAALGASAFSRSSNNAFKNQDLFADGEASAQLSNATTEMANLSNQVNSLSKQASITNDKKSRATQELKRVTEMKNSIQIKLNNLRSTHDQNVKQTEQLEAQVLQVNKENETLAQQLAVSEANYHAAESKLNELTTDLQESQTKNAELKEQITNLNSMTASLQSQLNEKQQQVKQERSMVDVNSKQLELNQVTVANLQKEIDGLGEKISVYLTKQKELNDYQKTVEEQHAQLQAKYQDLSNKDTDLTDREKQLEERNRQIEEQENLYHQHVSKLQEMFDDLSQRKASFEKADQELKERNIEYANNVRELSERQMNLAMGQLPEDAKDIIAKSAS
Q: B1 was tested. Which ID/IS of 20 µM Sla2 IDR-CC when mixed with 45 µM Ede1 IDR-CC (4.7 for Sla2 IDR-CC alone), 2.5% (w/v) PEG 8000 [2] did it give?
A: 7.8

Q: What about the droplet-to-solution intensity ratio (ID/IS) of 5 µM Ede1 IDR-CC in condensates of 20 µM Sla2 IDR-CC, 2.5% (w/v) PEG 8000 [2] of the same molecule?
A: 4

From paper PMC13615978
